The target of series [1] is Rad51 (yRad51 wild type) (Saccharomyces cerevisiae, UniProt P25454 1-400). Put plainly: stopped-flow Cy3 fluorescence.
Series [2] addresses Rad51-E221D (Saccharomyces cerevisiae, UniProt P25454 1-400, E221D). Put plainly: stopped-flow Cy3 fluorescence.
Series [3] concerns the target T1, Srs2^CΔ276 (S. cerevisiae, UniProt P12954 1-898).
T1 sequence (looked up): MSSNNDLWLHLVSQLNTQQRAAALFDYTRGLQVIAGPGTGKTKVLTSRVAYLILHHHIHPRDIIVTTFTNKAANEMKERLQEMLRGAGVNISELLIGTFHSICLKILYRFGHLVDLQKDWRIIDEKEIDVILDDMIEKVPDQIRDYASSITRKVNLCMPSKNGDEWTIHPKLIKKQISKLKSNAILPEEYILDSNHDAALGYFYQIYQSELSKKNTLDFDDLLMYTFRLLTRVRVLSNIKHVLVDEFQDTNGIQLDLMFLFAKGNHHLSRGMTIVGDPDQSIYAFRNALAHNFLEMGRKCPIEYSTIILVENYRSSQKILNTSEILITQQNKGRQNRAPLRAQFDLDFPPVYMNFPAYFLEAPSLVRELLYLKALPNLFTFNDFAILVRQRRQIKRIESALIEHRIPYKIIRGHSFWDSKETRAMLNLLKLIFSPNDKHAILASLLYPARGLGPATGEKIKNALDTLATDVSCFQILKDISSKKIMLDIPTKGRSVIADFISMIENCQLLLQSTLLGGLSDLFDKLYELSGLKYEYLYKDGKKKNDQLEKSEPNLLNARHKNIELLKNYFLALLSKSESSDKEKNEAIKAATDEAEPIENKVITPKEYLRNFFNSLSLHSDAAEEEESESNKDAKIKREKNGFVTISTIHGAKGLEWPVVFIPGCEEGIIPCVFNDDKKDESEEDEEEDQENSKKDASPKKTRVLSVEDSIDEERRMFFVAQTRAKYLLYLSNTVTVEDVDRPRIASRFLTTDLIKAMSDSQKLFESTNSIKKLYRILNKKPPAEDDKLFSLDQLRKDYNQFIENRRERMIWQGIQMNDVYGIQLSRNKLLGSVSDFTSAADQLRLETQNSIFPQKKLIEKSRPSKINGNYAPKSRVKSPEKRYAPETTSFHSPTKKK
The series is described as follows: SPR.

This note sets out measurements from article PMC2711036 (Molecular cell, 2009).

B1: 5'-Cy3-dT79 (ssDNA)
DNA: TTTTTTTTTTTTTTTTTTTTTTTTTTTTTTTTTTTTTTTTTTTTTTTTTTTTTTTTTTTTTTTTTTTTTTTTTTTTTTT
Turning to B1, the “apparent K (half saturation)” value in series [1] amounted to 1.55 ± 0.3 nM as printed; in series [2], 2.17 ± 0.6 nM as printed.

B2: Rad51 (natural protein, S. cerevisiae (yeast Rad51, yRad51), UniProt P25454 1-400, looked up)
chain: MSQVQEQHISESQLQYGNGSLMSTVPADLSQSVVDGNGNGSSEDIEATNGSGDGGGLQEQAEAQGEMEDEAYDEAALGSFVPIEKLQVNGITMADVKKLRESGLHTAEAVAYAPRKDLLEIKGISEAKADKLLNEAARLVPMGFVTAADFHMRRSELICLTTGSKNLDTLLGGGVETGSITELFGEFRTGKSQLCHTLAVTCQIPLDIGGGEGKCLYIDTEGTFRPVRLVSIAQRFGLDPDDALNNVAYARAYNADHQLRLLDAAAQMMSESRFSLIVVDSVMALYRTDFSGRGELSARQMHLAKFMRALQRLADQFGVAVVVTNQVVAQVDGGMAFNPDPKKPIGGNIMAHSSTTRLGFKKGKGCQRLCKVVDSPCLPEAECVFAIYEDGVGDPREEDE
Take B2: in series [3], binding was put at a Kd of 15.2 ± 5 µM.
